T1: Ire1KR32 (Saccharomyces cerevisiae? ("yeast"), UniProt P32361 641-1115)
T1 sequence: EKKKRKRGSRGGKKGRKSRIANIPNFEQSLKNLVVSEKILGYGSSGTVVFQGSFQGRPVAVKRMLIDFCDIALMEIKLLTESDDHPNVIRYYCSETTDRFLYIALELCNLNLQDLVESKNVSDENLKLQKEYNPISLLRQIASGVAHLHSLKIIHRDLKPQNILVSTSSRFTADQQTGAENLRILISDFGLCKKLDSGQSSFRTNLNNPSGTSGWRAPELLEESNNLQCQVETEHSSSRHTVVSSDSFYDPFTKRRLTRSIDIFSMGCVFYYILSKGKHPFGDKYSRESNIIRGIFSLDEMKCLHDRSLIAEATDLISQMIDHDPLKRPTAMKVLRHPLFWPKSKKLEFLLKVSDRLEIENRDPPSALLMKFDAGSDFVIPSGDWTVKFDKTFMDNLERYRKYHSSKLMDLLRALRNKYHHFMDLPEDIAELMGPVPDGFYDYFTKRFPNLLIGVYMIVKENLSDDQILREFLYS

B1: dCdCdGdCdAdG (2'-deoxy-CCGCAG) (ssDNA)
DNA: CCGCAG
modifications: 2'-deoxy throughout

Tests used:
[1] = target: Ire1KR32 (wild type) (yeast)
Ire1KR32 = target: T1, Ire1KR32; experiment: competition (inhibition of 32P-HP21 cleavage); apparent Ki; 2 mM Mg2+, 2 mM ADP, 3 uM Ire1KR32; 20 mM HEPES pH 7.4, 70 mM NaCl, 5% glycerol, 2 mM Mg(CH3COO)2, 2 mM ADP, 4 mM DTT, 30 C; settings: protein: recombinant; tags: GST removed with Prescission protease; label: none; single strand

Row | Molecule | RNase activity (single-turnover cleavage of 32P-HP21) of 1.5 μM wild-type Ire1KR32 titrated with 0.1-15 μM Ire1KR32(H1061N); in trans activation, inhibition at excessive H1061N [1] [fold] | Ki (Ire1KR32) [µM]
1 | Ire1KR32(H1061N) (domain or fragment) | 10 | 
2 | B1 |  | 200 ± 50
